The target in assay [1] is T1, STIM1 peptide 2B (amino acids 97-127 of STIM1) (human, biotinylated in the ELISA of FIG. 3 panel A (position not given)).
T1 construct: One of the two immunization peptides
The assay is described as follows: ELISA on Peptide 2B (aa 97-127), B-M4 titrated. As for the experimental part: (§1) FIG. 3 illustrated the validation by Elisa of the monoclonal anti-STIM1 antibody clone B-M4. […] Anti-STIM1 mAb clone B-M4 mAb (10 μg/ml) was diluted to 1/10 and antigens STIM1 biotinylated peptides used at concentrations of 50 ng/well for peptides 1A and 1B and 100 ng/well for peptide 2A and 10 ng/well for peptide 2B. Panel B: Specificity of the B-M4 antibody for STIM1 is confirmed by ELISA using the peptide 2B and a recombinant STIM1 EF/SAM peptide (1 μg/mL). B-M4 mAb used at 100 μg/mL diluted to 1/10. Panel C: Specificity for the B-M4 antibody for the peptide 2B over the other peptides (1A, 1B, 2A, 2B, C2, C3, C4, C5, C6, C7 and C8). Peptides are used at a concentration of 1 μg/mL. Histograms represents mean optical density measured using an Elisa approach.

Assay [2] addresses T2, mouse STIM1 at the plasma membrane of mouse spleen B and T cells (mouse, UniProt P70302 23-685).
T2 construct: whole, on cells; also called mSTIM1 (mice B and T cells)
The assay is described as follows: direct flow cytometry with PE coupled B-M4 on spleen B and T cells, n=4. (In general: Flow cytometry measures light scatter and fluorescence of single cells or particles in a stream.)

The target in assay [3] is T3, recombinant STIM1 EF/SAM peptide (STIM1 aa 58-201) (human, UniProt Q13586 58-201).
T3 construct: also called soluble recombinant protein corresponding to the STIM1 EF-Hand domain
The assay is described as follows: Octet (BLI), 1 to 1 fitting model, EF-SAM peptide at 300, 200 and 133 nM. As for the experimental part:
(§2) Affinity constants (Kon, Kdis) were calculated.
Background: BLI is a label-free optical method that tracks binding on a fibre tip over time.

The target of assay [4] is T3, recombinant STIM1 EF/SAM peptide (STIM1 …). The assay is described as follows: ELISA on recombinant STIM1 EF-SAM peptide (aa 58-201) at 1 µg/mL, B-M4 titrated. The method, then:
as §1
Background: In an ELISA, binding on a coated surface is turned into a signal by an enzyme label.

Assay [5] shares this target. The assay is described as follows: Octet, EF-SAM peptide at 300, 200 and 133 nM, 1 to 1 fitting model; same value in all three rows [table]. The method, then:
(§3) FIG. 9 represents the determination of the anti-STIM1 mAb clone B-M4 affinity. […] High affinity interaction is characterized by a low K, a fast recognizing (high kon) and a stable formation of complexes (low kdis). kdis: dissociation rate constant. kon: complex formation rate.
as §2

A further assay concerns the target T4, Peptide 1B (biotinylated in the ELISA of Figure 3 A (site not given)).
T4 construct: also called STIM1 peptide 1B; aa 169 to aa 197
The assay is described as follows: ELISA, DO492 - DO Blanc. The method, then: as §1

Another assay deals with T5, Peptide 2A (biotinylated in the ELISA of Figure 3 A (site not given)).
T5 construct: also called STIM1 peptide 2A; aa 62 to aa 95
The assay is described as follows: ELISA, DO492 - DO Blanc. The method, then:
as §1

Assay [6] has as its target T3, recombinant STIM1 EF/SAM peptide (STIM1 …). The assay is described as follows: Octet, EF-SAM peptide at 300, 200 and 133 nM, 1 to 1 fitting model; column kdis, same value in all three rows [table]. As for the experimental part: as §3, §2
Another assay has as its target T6, Peptide 1A (biotinylated in the ELISA of Figure 3 A (site not given)).
T6 construct: also called STIM1 peptide 1A; aa 128 to aa 168
The assay is described as follows: ELISA, DO492 - DO Blanc and DO492 - DO630. The method, then:
as §1

These results are taken from patent publication US20230058212A1 (UNIVERSIT DE BRETAGNE OCCIDENTALE UBO, published 2023).

T3 sequence (Q13586 58-201): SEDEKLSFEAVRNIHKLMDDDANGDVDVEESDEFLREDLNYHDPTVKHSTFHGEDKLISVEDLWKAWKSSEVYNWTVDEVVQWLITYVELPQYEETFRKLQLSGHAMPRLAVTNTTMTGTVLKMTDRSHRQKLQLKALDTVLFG
T4 sequence (peptide, as listed by the source): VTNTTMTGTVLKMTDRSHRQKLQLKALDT
T1 sequence (peptide, as listed by the source): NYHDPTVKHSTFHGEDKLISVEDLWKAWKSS
T5 sequence (peptide, as listed by the source): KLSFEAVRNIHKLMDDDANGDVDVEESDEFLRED
T2 sequence (P70302 23-685): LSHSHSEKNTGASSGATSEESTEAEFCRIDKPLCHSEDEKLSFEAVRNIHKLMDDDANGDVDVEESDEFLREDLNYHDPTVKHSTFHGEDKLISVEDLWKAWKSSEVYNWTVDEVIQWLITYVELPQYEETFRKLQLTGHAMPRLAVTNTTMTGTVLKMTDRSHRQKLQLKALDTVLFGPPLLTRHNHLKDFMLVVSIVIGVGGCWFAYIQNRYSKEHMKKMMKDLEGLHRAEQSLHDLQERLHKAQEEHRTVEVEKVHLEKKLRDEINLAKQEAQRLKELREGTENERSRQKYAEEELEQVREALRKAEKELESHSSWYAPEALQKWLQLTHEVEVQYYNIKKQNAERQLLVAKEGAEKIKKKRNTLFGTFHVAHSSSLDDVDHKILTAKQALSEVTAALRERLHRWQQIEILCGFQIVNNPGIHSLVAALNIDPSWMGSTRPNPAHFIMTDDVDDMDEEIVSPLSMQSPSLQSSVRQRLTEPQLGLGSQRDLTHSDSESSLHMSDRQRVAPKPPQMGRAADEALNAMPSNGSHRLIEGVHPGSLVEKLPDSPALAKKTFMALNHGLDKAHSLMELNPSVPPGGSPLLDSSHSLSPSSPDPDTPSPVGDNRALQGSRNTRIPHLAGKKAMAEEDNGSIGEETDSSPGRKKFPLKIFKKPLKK
T6 sequence (peptide, as listed by the source): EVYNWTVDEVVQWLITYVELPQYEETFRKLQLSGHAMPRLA

B1: monoclonal anti-STIM1 antibody clone B-M4 (antibody, V domains shown)
VH: EVKLVESGGGLVQPGGSLKLSCAASGFTFSRYSMSWVRQTPEKRLEWVAHIRNGGGSTYYPDTVKGRFTISRDNAKNTLYLQMSSLKSEDTAMYYCARPPYGNYEGYFDVWGAGTTVTVSS
VL: DIVMSQSPSSLAVSAGEKVTMSCKSSQSLLNSRTRKNYLAWYQQKPGQSPKLLIYWASTRESGVPDRFTGSGSGTDFTLTISSVQAEDLAVYYCKQSYNLYTFGGGTKLEIK
notes: In the direct flow cytometry assays it was coupled to phycoerythrin (PE); also called B-M4 mAb; anti-STIM1 mAb clone B-M4
The EC50 (read off the curve) is the concentration needed to bring the measured effect to its halfway point. A word on the Kd: it is the concentration at which binding is half-saturated. The term kon denotes a measure of how fast the partners come together. As usually defined, the koff is a measure of how fast the partners let go of each other. On to B1, for which the figures for the “EC50 (read off the curve)” value in assay [1] and in assay [4] were roughly 0.02 µg/mL and roughly 0.07 µg/mL, respectively. The binding result is given as “binds” in assay [2], “no binding” with Peptide 1B, “no binding” in the assay with Peptide 2A and “no binding” with Peptide 1A. Also, the Kd in [3] is 37 nM. The kon in assay [5] was found to be 9960 M⁻¹ s⁻¹. Moreover, the koff in assay [6] amounted to 0.000369 s⁻¹.
